The target in this test is IL-17 receptor like polypeptide on human B-lymphoblast cell line GM3104A (human) (UniProt Q9NRM6). Nature of the test: cell-based or functional assay.

For one substance, IL-1α (pg/ml) released by GM3104A cells, IL-6 (pg/ml) released by GM3104A cells and TNF-α (pg/ml) released by GM3104A cells results are on record in US20050234221A1.

Sequence of recombinant human IL-17E-Fc fusion protein (chain): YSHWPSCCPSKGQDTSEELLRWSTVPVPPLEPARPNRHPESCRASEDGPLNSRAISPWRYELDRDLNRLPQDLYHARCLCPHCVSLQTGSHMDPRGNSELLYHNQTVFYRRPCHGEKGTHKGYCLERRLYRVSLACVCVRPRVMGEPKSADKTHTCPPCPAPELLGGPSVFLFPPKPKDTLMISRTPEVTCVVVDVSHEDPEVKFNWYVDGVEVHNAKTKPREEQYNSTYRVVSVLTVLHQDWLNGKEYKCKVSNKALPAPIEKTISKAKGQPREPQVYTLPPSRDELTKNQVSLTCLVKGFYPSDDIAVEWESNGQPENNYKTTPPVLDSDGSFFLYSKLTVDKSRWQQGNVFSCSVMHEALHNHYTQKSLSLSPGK

For the substance “recombinant human IL-17E-Fc fusion protein”, the IL-1α (pg/ml) released by GM3104A cells was 25 pg/mL, the IL-6 (pg/ml) released by GM3104A cells turned out to be 362 pg/mL and the TNF-α (pg/ml) released by GM3104A cells turned out to be 460 pg/mL.
